Measurements: the supplement of paper PMC7877785
± gives the uncertainty stated by the source.

Assay: self-splicing fitness, log relative to wild type (ln ratio); higher = more splicing; Tetrahymena group I intron in knt gene, E. coli kanamycin selection, DiMSum; sequences stand for … in CUCUCU…GGAGGGAAAAGUUAUCAGGCAUGCACCUGGUAGCUAGUCUUUAAACCAAUAGAUUGCAUCGGUUUAAAAGGCAAGACCGUCAAAUUGCGGGAAAGGGGUCAACAGCCGUUCAGUACCAAGUCUCAGGGGAAACUUUGAGAUGGCCUUGCAAAGGGUAUGGUAAUAAGCUGACGGACAUGGUCCUAACCACGCAGCCAAGUCCUAAGUCAACAGAUCUUCUGUUGAUAUGGAUGCAGUUCACAGACUAAAUGUCGGUCGGGGAAGAUGUAUUCUUCUCAUAAGAUAUAGUCGGACCUCUCCUUAAUGGGAGCUAGCGGAUGAAGUGAUGCAACACUGGAGCCGCUGGGAACUAAUUUGUAUGCGAAAGUAUAUUGAUUAGUUUUGGAGUACUCGUGGUCG
Outline: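 The eight P1ex-region nucleotides of an intron in the knt kanamycin-resistance gene on pET-22b(+) were all randomised and the library put into E. coli BL21(DE3). Six replicate transformations were grown overnight at 37°C or 30°C on LB agar with or without 25 μg/mL kanamycin, together with 100 μg/mL carbenicillin, 50 μM IPTG and 0.2% rhamnose. Colonies were pooled and amplicon-sequenced on an Illumina HiSeq 2500. Fitness from DiMSum is the error-weighted combination of wild-type-normalised replicate fold changes, kanamycin over none.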

Sequence: AUGCAGCAAUAUUACGGAAA
- self-splicing fitness (ln) (30 °C): -1.86 ± 0.23
- self-splicing fitness (ln) (37 °C): -2.17 ± 0.28

Sequence: AUGCAGCAAUAUUACGGUAU
- self-splicing fitness (ln) (30 °C): -4.16 ± 0.27
- self-splicing fitness (ln) (37 °C): -1.42 ± 0.14

Sequence: AUGCAGCAAUAUUACGGUCA
- self-splicing fitness (ln) (30 °C): -1.2 ± 0.14
- self-splicing fitness (ln) (37 °C): -1.08 ± 0.14

Sequence: AUGCAGCAAUAUUACGUAGG
- self-splicing fitness (ln) (30 °C): -1.72 ± 0.082
- self-splicing fitness (ln) (37 °C): -1.16 ± 0.11

Sequence: AUGCAGCAAUAUUACGUCGU
- self-splicing fitness (ln) (30 °C): -0.894 ± 0.11
- self-splicing fitness (ln) (37 °C): -1.66 ± 0.13

Sequence: AUGCAGCAAUAUUACGUCUA
- self-splicing fitness (ln) (30 °C): -0.692 ± 0.12
- self-splicing fitness (ln) (37 °C): 0.148 ± 0.1

Sequence: AUGCAGCAAUAUUACGUUUG
- self-splicing fitness (ln) (30 °C): -3.45 ± 0.17
- self-splicing fitness (ln) (37 °C): -1.82 ± 0.17

Sequence: AUGGAGCAAUAUUACGACAC
- self-splicing fitness (ln) (30 °C): -1.26 ± 0.32
- self-splicing fitness (ln) (37 °C): -1.08 ± 0.26

Sequence: AUGGAGCAAUAUUACGACCU
- self-splicing fitness (ln) (30 °C): -0.472 ± 0.14
- self-splicing fitness (ln) (37 °C): 0.103 ± 0.18

Sequence: AUGGAGCAAUAUUACGAUAA
- self-splicing fitness (ln) (30 °C): -2.21 ± 0.26

Sequence: AUGGAGCAAUAUUACGCAGU
- self-splicing fitness (ln) (30 °C): -3.57 ± 0.37
- self-splicing fitness (ln) (37 °C): -3.17 ± 0.37

Sequence: AUGGAGCAAUAUUACGCCGG
- self-splicing fitness (ln) (30 °C): -2.78 ± 0.46

Sequence: AUGGAGCAAUAUUACGCUUA
- self-splicing fitness (ln) (30 °C): -2.53 ± 0.33
- self-splicing fitness (ln) (37 °C): -0.194 ± 0.21

Sequence: AUGGAGCAAUAUUACGGACU
- self-splicing fitness (ln) (30 °C): -1.2 ± 0.18
- self-splicing fitness (ln) (37 °C): -0.626 ± 0.23

Sequence: AUGGAGCAAUAUUACGGCUC
- self-splicing fitness (ln) (30 °C): -2.53 ± 0.45

Sequence: AUGGAGCAAUAUUACGGGUG
- self-splicing fitness (ln) (30 °C): -3.75 ± 0.39
- self-splicing fitness (ln) (37 °C): -2.18 ± 0.22

Sequence: AUGGAGCAAUAUUACGGUAA
- self-splicing fitness (ln) (37 °C): -1.08 ± 0.16

Sequence: AUGGAGCAAUAUUACGGUAU
- self-splicing fitness (ln) (30 °C): -3.49 ± 0.16
- self-splicing fitness (ln) (37 °C): -1.32 ± 0.1

Sequence: AUGGAGCAAUAUUACGGUUU
- self-splicing fitness (ln) (30 °C): -2.56 ± 0.26
- self-splicing fitness (ln) (37 °C): -2.26 ± 0.21

Sequence: AUGGAGCAAUAUUACGUACG
- self-splicing fitness (ln) (30 °C): -3.38 ± 0.47
- self-splicing fitness (ln) (37 °C): -2.58 ± 0.36

Sequence: AUGGAGCAAUAUUACGUAGG
- self-splicing fitness (ln) (30 °C): -3.11 ± 0.17
- self-splicing fitness (ln) (37 °C): -2.76 ± 0.23

Sequence: AUGGAGCAAUAUUACGUAUC
- self-splicing fitness (ln) (30 °C): -3.83 ± 0.47
- self-splicing fitness (ln) (37 °C): -1.67 ± 0.24

Sequence: AUGGAGCAAUAUUACGUAUG
- self-splicing fitness (ln) (30 °C): -4.28 ± 0.46
- self-splicing fitness (ln) (37 °C): -3.19 ± 0.37

Sequence: AUGGAGCAAUAUUACGUCUU
- self-splicing fitness (ln) (30 °C): -2.52 ± 0.16
- self-splicing fitness (ln) (37 °C): -1.81 ± 0.21

Sequence: AUGGAGCAAUAUUACGUGUA
- self-splicing fitness (ln) (30 °C): -3.43 ± 0.26
- self-splicing fitness (ln) (37 °C): -3.04 ± 0.23

Sequence: AUGUAGCAAUAUUACGACUG
- self-splicing fitness (ln) (30 °C): -0.943 ± 0.1
- self-splicing fitness (ln) (37 °C): -0.461 ± 0.1

Sequence: AUGUAGCAAUAUUACGAGCC
- self-splicing fitness (ln) (37 °C): -1.05 ± 0.49

Sequence: AUGUAGCAAUAUUACGAUAU
- self-splicing fitness (ln) (30 °C): -0.909 ± 0.11
- self-splicing fitness (ln) (37 °C): 0.222 ± 0.14

Sequence: AUGUAGCAAUAUUACGAUCG
- self-splicing fitness (ln) (30 °C): -2.2 ± 0.15
- self-splicing fitness (ln) (37 °C): -1.12 ± 0.2

Sequence: AUGUAGCAAUAUUACGCUUG
- self-splicing fitness (ln) (30 °C): -1.06 ± 0.14
- self-splicing fitness (ln) (37 °C): -0.51 ± 0.15

Sequence: AUGUAGCAAUAUUACGGAAG
- self-splicing fitness (ln) (37 °C): -2.01 ± 0.31

Sequence: AUGUAGCAAUAUUACGGCGU
- self-splicing fitness (ln) (30 °C): -1.14 ± 0.11
- self-splicing fitness (ln) (37 °C): -0.716 ± 0.094

Sequence: AUGUAGCAAUAUUACGGUAA
- self-splicing fitness (ln) (30 °C): -2.15 ± 0.23
- self-splicing fitness (ln) (37 °C): -1.36 ± 0.17

Sequence: AUGUAGCAAUAUUACGGUGA
- self-splicing fitness (ln) (30 °C): -1.57 ± 0.13
- self-splicing fitness (ln) (37 °C): -1.52 ± 0.16

Sequence: AUGUAGCAAUAUUACGGUGU
- self-splicing fitness (ln) (30 °C): -3.04 ± 0.16
- self-splicing fitness (ln) (37 °C): -0.843 ± 0.1

Sequence: AUGUAGCAAUAUUACGGUUA
- self-splicing fitness (ln) (30 °C): -0.747 ± 0.17
- self-splicing fitness (ln) (37 °C): -0.518 ± 0.14

Sequence: AUGUAGCAAUAUUACGGUUC
- self-splicing fitness (ln) (30 °C): -1.72 ± 0.099
- self-splicing fitness (ln) (37 °C): -1.29 ± 0.12

Sequence: AUGUAGCAAUAUUACGUAUA
- self-splicing fitness (ln) (30 °C): -1.99 ± 0.2
- self-splicing fitness (ln) (37 °C): -1.58 ± 0.21

Sequence: AUGUAGCAAUAUUACGUCCC
- self-splicing fitness (ln) (30 °C): -1.73 ± 0.17
- self-splicing fitness (ln) (37 °C): -1.02 ± 0.27

Sequence: AUGUAGCAAUAUUACGUCUG
- self-splicing fitness (ln) (30 °C): -1.94 ± 0.19
- self-splicing fitness (ln) (37 °C): -2.83 ± 0.26
